Laboratory results reported in PMC2851570, “Distinct Roles of Hand2 in Initiating Polarity and Posterior Shh Expression during the Onset of Mouse Limb Bud Development” (PLoS Genetics, 2010).

Tests used:
[1] = molecular target: Hoxd13 (expressed in transfected cells) (UniProt P70217)
[2] = molecular target: Hoxd13 (expressed in transfected cells) (UniProt P70217 1-339); test: cell-based or functional assay
Hoxd13 (expressed in transfected cells) (UniProt P70217 1-339), sequence (P70217 whole entry): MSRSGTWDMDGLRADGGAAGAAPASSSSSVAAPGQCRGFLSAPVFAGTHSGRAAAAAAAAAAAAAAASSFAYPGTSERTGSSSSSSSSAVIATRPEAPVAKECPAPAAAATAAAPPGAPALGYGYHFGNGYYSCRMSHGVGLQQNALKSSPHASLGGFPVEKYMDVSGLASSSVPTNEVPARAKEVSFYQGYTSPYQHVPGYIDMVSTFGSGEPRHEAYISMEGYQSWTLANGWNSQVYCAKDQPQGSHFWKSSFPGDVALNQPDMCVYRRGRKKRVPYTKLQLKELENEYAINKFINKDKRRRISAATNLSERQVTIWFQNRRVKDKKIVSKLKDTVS

Hoxd13 (expressed in transfected cells) (UniProt P70217), sequence (P70217 whole entry): as above

repression by co-expressed Gli3R of Hand2-Hoxd13 mediated transactivation of the ZRS-Luc reporter in NIH3T3 cells [1] [%] | luciferase activity of the ZRS-Luc reporter in NIH3T3 cells on co-transfection of Hand2 and Hoxd13 (basal activity set to 1; Hand2 alone ∼3-fold, Hoxd13 alone ∼6.5-fold) [2] [fold] | Molecule
50 |  | Gli3 repressor isoform (Gli3R), Myc-epitope tagged (domain or fragment)
 | ~10.5 | Hand2, Flag-epitope tagged (natural protein, UniProt Q61039 1-217, looked up) MSLVGGFPHHPVVHHEGYPFAAAAAAAAAAAASRCSHEENPYFHGWLIGHPEMSPPDYSMALSYSPEYASGAAGLDHSHYGGVPPGAGPPGLGGPRPVKRRGTANRKERRRTQSINSAFAELRECIPNVPADTKLSKIKTLRLATSYIAYLMDLLAKDDQNGEAEAFKAEIKKTDVKEEKRKKELNEILKSTVSSNDKKTKGRTGWPQHVWALELKQ
